Molecular target: propionyl-CoA synthase (PCS) from Erythrobacter sp. NAP1 (Erythrobacter sp. NAP1)
Test: crystal structure

## propionyl-CoA synthase (PCS) from Erythrobacter sp. NAP1 (enzyme)
  stoichiometry N: 2

Reference: article PMC6499725
